Reference: patent publication US12365732

Assays:
[1] = target: human CD96 on primary human immune cells (PBMCs, NK cells, CD4+ T cells) (human) (UniProt P40200); experiment: FACS, Ab 0.128 nM
[2] = target: human CD96 on primary human immune cells (PBMCs, NK cells, CD4+ T cells) (human) (UniProt P40200); experiment: FACS, Ab 0.0256 nM
[3] = target: human CD96 on primary human immune cells (PBMCs, NK cells, CD4+ T cells) (human) (UniProt P40200); experiment: FACS, % positive curve
[4] = target: human CD96 on primary human immune cells (PBMCs, NK cells, CD4+ T cells) (human) (UniProt P40200); experiment: cell-based or functional assay
[5] = target: human CD96 on primary human immune cells (PBMCs, NK cells, CD4+ T cells) (human) (UniProt P40200); experiment: FACS, Ab 16 nM
[6] = target: human CD96 on primary human immune cells (PBMCs, NK cells, CD4+ T cells) (human) (UniProt P40200); experiment: FACS, Ab 0.64 nM
[7] = target: human CD96 on primary human immune cells (PBMCs, NK cells, CD4+ T cells) (human) (UniProt P40200); experiment: FACS, Ab 0.00512 nM
[8] = target: human CD96 on primary human immune cells (PBMCs, NK cells, CD4+ T cells) (human) (UniProt P40200); experiment: FACS, Ab 80 nM
[9] = target: human CD96 on primary human immune cells (PBMCs, NK cells, CD4+ T cells) (human) (UniProt P40200); experiment: FACS, Ab 3.2 nM

Row | Binder | % positive [1] [%] | % positive [2] [%] | EC50 [3] [nM] | Human NK cell IFNγ secretion (fold over background), Ab 0.0032 nM [4] [fold] | Human NK cell IFNγ secretion (fold over background), Ab 0.016 nM [4] [fold] | Human NK cell IFNγ secretion (fold over background), Ab 0.08 nM [4] [fold] | Human NK cell IFNγ secretion (fold over background), Ab 0.4 nM [4] [fold] | Human NK cell IFNγ secretion (fold over background), Ab 2 nM [4] [fold] | Human NK cell IFNγ secretion (fold over background), Ab 10 nM [4] [fold] | Human NK cell IFNγ secretion (fold over background), Ab 50 nM [4] [fold] | Human NK cell IFNγ secretion (fold over background), Ab 250 nM [4] [fold] | Human NK cell IFNγ secretion, EC50 [4] [nM] | % positive [5] [%] | % positive [6] [%] | % positive [7] [%] | % positive [8] [%] | % positive [9] [%]
1 | mAb1.v7.NGS10 IgG (antibody, V domains shown) VH: EVQLVQSGAEVKKPGASVKVSCKASGFTFTNNFMHWVRQAPGQGLEWIGFIHANSGITNINEKFKNRVTMTTDTSTSTAYMELRSLRSEDTAVYYCRSDGIYEGYFDYWGQGTLVTVSS VL: DIQLTQSPSSLSASVGDRVTITCKASQNVGTAIVWYQQKPGKAPKVLIYSASTRYTGVPSRFSGSGSGTDFTLTISSLQPEDFATYYCQQYSSSPLTFGQGTKVEIKG | 66.7 | 16.9 | 0.069 | 1 | 1.24 | 1.36 | 1.81 | 2.12 | 1.94 | 2.05 | 1.87 | 0.084 | 97.1 | 88.8 | 6.1 | 97.7 | 93.8
2 | mAb1.v7.NGS9 IgG (antibody, V domains shown) VH: EVQLVQSGAEVKKPGASVKVSCKASGFTFTNNFMHWVRQAPGQGLEWIGMIHANSGITNINEKFKNRVTMTTDTSTSTAYMELRSLRSEDTAVYYCRSDGVYEGYFDYWGQGTLVTVSS VL: DIQLTQSPSSLSASVGDRVTITCKASQNVGTAIVWYQQKPGKAPKVLIYSASTRYTGVPSRFSGSGSGTDFTLTISSLQPEDFATYYCQQYSSSPLTFGQGTKVEIKG | 64.7 | 22.5 | 0.071 |  |  |  |  |  |  |  |  |  | 97.1 | 90.8 | 8.2 | 97.8 | 95.1
3 | mAb1.v7.NGS8 IgG (antibody, V domains shown) VH: EVQLVQSGAEVKKPGASVKVSCKASGFTFTNNFMHWVRQAPGQGLEWIGMIHANSGITNINEKFKNRVTMTTDTSTSTAYMELRSLRSEDTAVYYCRSDGIYEGYFDYWGQGTLVTVSS VL: DIQLTQSPSSLSASVGDRVTITCKASQNVGTAIVWYQQKPGKAPKVLIYSASTRYTGVPSRFSGSGSGTDFTLTISSLQPEDFATYYCQQYSSSPLTFGQGTKVEIKG | 64.2 | 22 | 0.072 |  |  |  |  |  |  |  |  |  | 96.2 | 89.3 | 8.6 | 97.8 | 92.3
4 | mAb1.v7.NGS11 IgG (antibody, V domains shown) VH: EVQLVQSGAEVKKPGASVKVSCKASGFTFTNNFMHWVRQAPGQGLEWIGFIHANSGITNINEKFKNRVTMTTDTSTSTAYMELRSLRSEDTAVYYCRSDGVYEGYFDYWGQGTLVTVSS VL: DIQLTQSPSSLSASVGDRVTITCKASQNVGTAIVWYQQKPGKAPKVLIYSASTRYTGVPSRFSGSGSGTDFTLTISSLQPEDFATYYCQQYSSSPLTFGQGTKVEIKG | 61.1 | 11.6 | 0.083 |  |  |  |  |  |  |  |  |  | 96.7 | 89.7 | 5.4 | 97.2 | 94.2
5 | h10G1 IgG (humanized 10G1) (antibody, V domains shown) VH: EIQLVQSGSELKKPGASVKVSCKASGYPFTTYGMSWVRQAPGQGLEWMGWINTDSGVPTYADDFKGRFVFSLDTSVSTAYLQISSLKAEDTAVYFCARNIYYGWGNFDYWGQGTLVTVSS VL: EIVMTQSPDFQSVTPKEKVTITCRASQDIYRNLHWYQQKPDQTPKLLIKHASDSISGIPSRFSGSGSGTDFTLTINSLEAEDAAAYYCLQGYSMPYTFGGGTKVEIKG | 39.1 | 14.6 | 0.28 | 1 | 1.13 | 1.38 | 1.96 | 2.08 | 2.19 | 2.21 | 1.87 | 0.112 | 81.4 | 53.5 | 5.4 | 88.7 | 64.4
